US20050048594

How the values were obtained:
[1] = system: T1, peptide ARKRERAF(3-CF3)SFGHHA
T1 sequence: ARKRERAFSFGHHA

[2] = system: T2, CF3-CO N-capped-AKTide (CF3-CO-ARKRERAYSFGHHA)
T2 sequence: ARKRERAYSFGHHA

Substance: WtAKT1 recombinant protein (activated protein Ser/Thr kinase AKT1)
- phosphorylation of the peptide followed by 19F NMR (25 nM AKT1) [1]: The peptide is a good substrate for AKT1 and trypsin
- phosphorylation of the peptide followed by 19F NMR (time to complete conversion; 50 nM AKT1, 30 uM peptide, 131 uM ATP) [2]: The enzymatic reaction is complete after 149 minutes and only the signal of the phosphorylated peptide is visible in the spectrum
